Molecular target: VisA (SGO_2004) region containing its 7 G5 domains, residues 138-698, with a C-terminal His-tag (Streptococcus gordonii DL1)
Assay: denaturing western blot

“VisA (SGO_2004) region containing its 7 G5 domains, residues 138-698, with a C-terminal His-tag (domain or fragment)” was tested, and the stoichiometry N was 2.

Reference: paper doi:10.1101/2024.07.16.603716
